Key:
[1] = target: the molecule itself; assay: negative-staining electron microscopy; Drg1 hexamers assembled in vitro with ADP, AMPPNP, ADP/AMPPNP/benzo-diazaborine or ATP/benzo-diazaborine; 0.02 mg/mL, 2% uranyl acetate, carbon-coated copper grids
[2] = target: the molecule itself; assay: cryo-EM structure; Drg1 E346Q/E617Q with ATP; GraFix (glycerol gradient with 0-0.05% glutaraldehyde); 50 mM HEPES-KOH pH 6.8, 150 mM KCl, 5 mM MgCl2, 1 mM DTT, 1 mM nucleotide; protomer with protomer in the hexamer

Protein	stoichiometry N [1]	stoichiometry N [2]
Drg1 (wild type, S. cerevisiae) (enzyme, UniProt P32794 1-780, looked up, Drg1, type II AAA+ ATPase encoded by AFG2, S. cerevisiae (genome of strain BY4741), full length; Hexamers assembled in vitro with ADP, AMPPNP, ADP/AMPPNP/benzo-diazaborine or ATP/benzo-diazaborine; stabilised by GraFix (glutaraldehyde) for cryo-EM; also called Drg1^WT; Drg1 hexamer; source: E. coli Transetta (DE3), purified (Ni-NTA, TEV cleavage, Mono Q, size-exclusion chromatography); not shown: …) MAPKSSSSGSKKKSSASSNSADAKASKFKLPAEFITRPHPSKDHGKETCTAYIHPNVLSSLEINPGSFCTVGKIGENGILVIARAGDEEVHPVNVITLSTTIRSVGNLILGDRLELKKAQVQPPYATKVTVGSLQGYNILECMEEKVIQKLLDDSGVIMPGMIFQNLKTKAGDESIDVVITDASDDSLPDVSQLDLNMDDMYGGLDNLFYLSPPFIFRKGSTHITFSKETQANRKYNLPEPLSYAAVGGLDKEIESLKSAIEIPLHQPTLFSSFGVSPPRGILLHGPPGTGKTMLLRVVANTSNAHVLTINGPSIVSKYLGETEAALRDIFNEARKYQPSIIFIDEIDSIAPNRANDDSGEVESRVVATLLTLMDGMGAAGKVVVIAATNRPNSVDPALRRPGRFDQEVEIGIPDVDARFDILTKQFSRMSSDRHVLDSEAIKYIASKTHGYVGADLTALCRESVMKTIQRGLGTDANIDKFSLKVTLKDVESAMVDIRPSAMREIFLEMPKVYWSDIGGQEELKTKMKEMIQLPLEASETFARLGISAPKGVLLYGPPGCSKTLTAKALATESGINFLAVKGPEIFNKYVGESERAIREIFRKARSAAPSIIFFDEIDALSPDRDGSSTSAANHVLTSLLNEIDGVEELKGVVIVAATNRPDEIDAALLRPGRLDRHIYVGPPDVNARLEILKKCTKKFNTEESGVDLHELADRTEGYSGAEVVLLCQEAGLAAIMEDLDVAKVELRHFEKAFKGIARGITPEMLSYYEEFALRSGSSS	6	
Drg1 E346Q/E617Q double mutant (Walker B motifs of D1 and D2) (enzyme, S. cerevisiae, UniProt P32794 1-780, looked up, Drg1, type II AAA+ ATPase encoded by AFG2, S. cerevisiae, full length, with the Walker B mutations E346Q and E617Q; Incubated with 5 mM ATP before size-exclusion chromatography; the atomic model covers residues 29 to 777; also called mutant Drg1; double mutant Drg1; source: E. coli Transetta (DE3), purified (Ni-NTA, TEV cleavage, Mono Q, size-exclusion chromatography); not shown: His6, …) MAPKSSSSGSKKKSSASSNSADAKASKFKLPAEFITRPHPSKDHGKETCTAYIHPNVLSSLEINPGSFCTVGKIGENGILVIARAGDEEVHPVNVITLSTTIRSVGNLILGDRLELKKAQVQPPYATKVTVGSLQGYNILECMEEKVIQKLLDDSGVIMPGMIFQNLKTKAGDESIDVVITDASDDSLPDVSQLDLNMDDMYGGLDNLFYLSPPFIFRKGSTHITFSKETQANRKYNLPEPLSYAAVGGLDKEIESLKSAIEIPLHQPTLFSSFGVSPPRGILLHGPPGTGKTMLLRVVANTSNAHVLTINGPSIVSKYLGETEAALRDIFNEARKYQPSIIFIDQIDSIAPNRANDDSGEVESRVVATLLTLMDGMGAAGKVVVIAATNRPNSVDPALRRPGRFDQEVEIGIPDVDARFDILTKQFSRMSSDRHVLDSEAIKYIASKTHGYVGADLTALCRESVMKTIQRGLGTDANIDKFSLKVTLKDVESAMVDIRPSAMREIFLEMPKVYWSDIGGQEELKTKMKEMIQLPLEASETFARLGISAPKGVLLYGPPGCSKTLTAKALATESGINFLAVKGPEIFNKYVGESERAIREIFRKARSAAPSIIFFDQIDALSPDRDGSSTSAANHVLTSLLNEIDGVEELKGVVIVAATNRPDEIDAALLRPGRLDRHIYVGPPDVNARLEILKKCTKKFNTEESGVDLHELADRTEGYSGAEVVLLCQEAGLAAIMEDLDVAKVELRHFEKAFKGIARGITPEMLSYYEEFALRSGSSS		6

Source: article PMC9646744, “Structural dynamics of AAA + ATPase Drg1 and mechanism of benzo-diazaborine inhibition” (Nature Communications, 2022)
